Assay results: patent publication US20100015664A1

How the values were obtained:
[1] = molecular target: T1, Nma-Gly-Pro-Ala-Gly-Phe-Ala-Gly-Pro-Lys-(DNP)r-NH2 (not fully specified)
T1 chain: GPAGFAGPK

[2] = molecular target: T2, Fluorescence-labeled synthetic peptide G FAGP (not fully specified)
T2 chain: GFAGP

[3] = molecular target: T3, Fluorescence-labeled synthetic peptide GPAG FA (not fully specified)
T3 chain: GPAGFA

[4] = molecular target: T4, Fluorescence-labeled synthetic peptide GPAG FAG (not fully specified)
T4 chain: GPAGFAG

[5] = molecular target: T5, Nma-Gly-Pro-Gln-Gly-Phe-Gln-Gly-Pro-Lys-(DNP)r-NH2 (not fully specified)
T5 chain: GPQGFQGPK

[6] = molecular target: T6, Fluorescence-labeled synthetic peptide GPAG F (not fully specified)
T6 chain: GPAGF

[7] = molecular target: T7, Fluorescence-labeled synthetic peptide PAG FAGP (not fully specified)
T7 chain: PAGFAGP

[8] = molecular target: T8, Fluorescence-labeled synthetic peptide of Pro-Gln-Gly-Ile-Ala-Gly-Gln (not fully specified)
T8 chain: PQGIAGQ

[9] = molecular target: T9, Nma-Thr-Gln-Ser-Leu-Val-Thr-Pro-Lys-(DNP)r-NH2 (not fully specified)
T9 chain: TQSLVTPK

[10] = molecular target: T10, Fluorescence-labeled synthetic peptide AG FAGP (not fully specified)
T10 chain: AGFAGP

B1: Protease of the present invention, purified from the culture of Aureobacterium sp. MIM-CG-9535-I (FERM P-15326) (protein)
chain: LIVNTVNSIDDKWSDAQASALTYCVSTAFGARHADVVSAMESGAALWEAASSKIDFIYDSSADANCTTRNNAVLFSVEPVQTTQYIARAFFPSTAPRLQNVLIDDSIWTPGSSWTPTNVLGHELGHVLGFRHEHTRPEAGTCFEDDNWRPLTPYDSSSIMHYPQCNGSSADLSMTSVDTDGVVALYGN
Present or Absent of Specific degradation activity [1]: Present
Protease cutting activity (degradation of synthetic substrate) [1]: (◯) Degrades
Present or Absent of Specific degradation activity [2]: Absent
Present or Absent of Specific degradation activity [3]: Absent
Present or Absent of Specific degradation activity [4]: Absent
Protease cutting activity (degradation of synthetic substrate) [5]: (◯) Degrades
Present or Absent of Specific degradation activity [6]: Absent
Present or Absent of Specific degradation activity [7]: Present
Protease cutting activity (degradation of synthetic substrate) [8]: (X) Does not degrade
Protease cutting activity (degradation of synthetic substrate) [9]: (◯) Degrades
Present or Absent of Specific degradation activity [10]: Absent
